Laboratory results from PMC2756588.

What follows are binders tested against Myo3, P36006 (assay: SPOT array). Details: median of control spots 468.

SPOT intensity | Binder
22 | IAPIPMPKPNPTHIS
5 | RPVPRRPSQPLNTLS

The binders below were run against T1, Abp1, P15891 (assay: SPOT array). Details: median of control spots 935.
T1 sequence (P15891 535-592, looked up): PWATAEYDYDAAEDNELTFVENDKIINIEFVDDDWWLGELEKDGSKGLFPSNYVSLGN

SPOT intensity | Binder
44 | IAPIPMPKPNPTHIS
125 | RPVPRRPSQPLNTLS

Each binder was assayed against T2, Myo5, Q04439 (assay: SPOT array). Details: median of control spots 471.
T2 sequence (Q04439 1072-1160, looked up): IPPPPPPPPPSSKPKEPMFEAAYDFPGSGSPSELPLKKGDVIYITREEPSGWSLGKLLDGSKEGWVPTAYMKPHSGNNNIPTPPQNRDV

SPOT intensity | Binder
7 | IAPIPMPKPNPTHIS
0 | RPVPRRPSQPLNTLS

These binders were tested against Bem1-2, P29366 (assay: SPOT array). Details: median of control spots 4347.
Bem1-2, P29366, sequence (P29366 139-227): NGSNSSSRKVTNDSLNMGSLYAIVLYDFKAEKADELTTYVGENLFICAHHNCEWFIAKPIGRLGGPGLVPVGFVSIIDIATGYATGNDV

SPOT intensity | Binder
0 | IAPIPMPKPNPTHIS
75 | RPVPRRPSQPLNTLS

The binders below were run against T3, Boi1, P38041 (assay: SPOT array). Details: median of control spots 1162.
T3 sequence (P38041 1-86, looked up): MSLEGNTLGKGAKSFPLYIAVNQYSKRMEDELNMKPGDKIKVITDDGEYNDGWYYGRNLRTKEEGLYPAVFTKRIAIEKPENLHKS

SPOT intensity | Binder
0 | IAPIPMPKPNPTHIS
0 | RPVPRRPSQPLNTLS

The binders below were run against T4, Bzz1-1, P38822 (assay: SPOT array). Details: median of control spots 4446.
T4 sequence (P38822 478-572, looked up): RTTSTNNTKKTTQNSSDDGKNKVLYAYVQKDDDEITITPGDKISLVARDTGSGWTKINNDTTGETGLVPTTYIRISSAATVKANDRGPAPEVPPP

SPOT intensity | Binder
0 | IAPIPMPKPNPTHIS
0 | RPVPRRPSQPLNTLS

These binders were tested against T5, Hof1, Q05080 (assay: SPOT array). Details: median of control spots 4086.
T5 sequence (Q05080 590-669, looked up): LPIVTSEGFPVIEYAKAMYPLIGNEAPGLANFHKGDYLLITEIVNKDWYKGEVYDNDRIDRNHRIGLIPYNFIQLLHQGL

SPOT intensity | Binder
0 | IAPIPMPKPNPTHIS
13 | RPVPRRPSQPLNTLS

Each binder was assayed against T6, Lsb4, P32793 (assay: SPOT array). Details: median of control spots 397.
T6 sequence (P32793 402-468, looked up): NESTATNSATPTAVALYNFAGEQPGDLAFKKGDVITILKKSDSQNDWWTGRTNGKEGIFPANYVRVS

SPOT intensity | Binder
9 | IAPIPMPKPNPTHIS
163 | RPVPRRPSQPLNTLS

What follows are binders tested against T7, Cdc25, P04821 (assay: SPOT array). Details: median of control spots 969.
T7 sequence (P04821 50-136, looked up): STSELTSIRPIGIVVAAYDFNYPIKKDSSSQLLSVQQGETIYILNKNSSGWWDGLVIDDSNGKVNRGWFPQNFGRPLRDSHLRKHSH

SPOT intensity | Binder
0 | IAPIPMPKPNPTHIS
37 | RPVPRRPSQPLNTLS

These binders were tested against T8, Bbc1, P47068 (assay: SPOT array). Details: median of control spots 796.
T8 sequence (P47068 1-78, looked up): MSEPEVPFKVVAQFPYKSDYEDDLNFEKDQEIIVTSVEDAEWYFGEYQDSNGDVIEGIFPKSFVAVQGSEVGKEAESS

SPOT intensity | Binder
0 | IAPIPMPKPNPTHIS
423 | RPVPRRPSQPLNTLS

Each binder was assayed against T9, Cyk3, Q07533 (assay: SPOT array). Details: median of control spots 1451.
T9 sequence (Q07533 1-83, looked up): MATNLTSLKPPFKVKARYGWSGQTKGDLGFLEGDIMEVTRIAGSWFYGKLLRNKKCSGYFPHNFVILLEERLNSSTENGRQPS

SPOT intensity | Binder
1 | IAPIPMPKPNPTHIS
1 | RPVPRRPSQPLNTLS

The binders below were run against T10, Hse1, P38753 (assay: SPOT array). Details: median of control spots 1727.
T10 sequence (P38753 208-285, looked up): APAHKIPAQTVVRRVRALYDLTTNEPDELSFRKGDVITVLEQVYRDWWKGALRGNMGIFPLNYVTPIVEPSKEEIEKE

SPOT intensity | Binder
0 | IAPIPMPKPNPTHIS
34 | RPVPRRPSQPLNTLS

The binders below were run against T11, Lsb3, P43603 (assay: SPOT array). Details: median of control spots 406.
T11 sequence (P43603 385-451, looked up): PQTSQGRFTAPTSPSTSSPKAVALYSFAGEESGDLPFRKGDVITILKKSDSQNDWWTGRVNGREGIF

SPOT intensity | Binder
0 | IAPIPMPKPNPTHIS
138 | RPVPRRPSQPLNTLS

The binders below were run against T12, Sla1-2, P32790 (assay: SPOT array). Details: median of control spots 712.
T12 sequence (P32790 60-140, looked up): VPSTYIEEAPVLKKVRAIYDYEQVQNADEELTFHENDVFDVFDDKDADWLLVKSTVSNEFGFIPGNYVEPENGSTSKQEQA

SPOT intensity | Binder
1 | IAPIPMPKPNPTHIS
0 | RPVPRRPSQPLNTLS

What follows are binders tested against Sho1, P40073 (assay: SPOT array). Details: median of control spots 1148.
Sho1, P40073, sequence (P40073 287-367): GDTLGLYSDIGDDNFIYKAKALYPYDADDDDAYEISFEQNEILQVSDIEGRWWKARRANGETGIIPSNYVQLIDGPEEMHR

SPOT intensity | Binder
0 | IAPIPMPKPNPTHIS
95 | RPVPRRPSQPLNTLS

Each binder was assayed against T13, Bzz1-2, P38822 (assay: SPOT array). Details: median of control spots 4538.
T13 sequence (P38822 568-633, looked up): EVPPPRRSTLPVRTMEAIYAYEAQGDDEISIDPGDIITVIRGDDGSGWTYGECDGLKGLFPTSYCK

SPOT intensity | Binder
0 | IAPIPMPKPNPTHIS
13 | RPVPRRPSQPLNTLS

What follows are binders tested against T14, Sla1-3, P32790 (assay: SPOT array). Details: median of control spots 5475.
T14 sequence (P32790 344-424, looked up): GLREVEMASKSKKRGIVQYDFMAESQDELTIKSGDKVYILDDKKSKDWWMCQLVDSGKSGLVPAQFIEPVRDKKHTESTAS

SPOT intensity | Binder
0 | IAPIPMPKPNPTHIS
31 | RPVPRRPSQPLNTLS

Each binder was assayed against T15, Fus1, P11710 (assay: SPOT array). Details: median of control spots 1200.
T15 sequence (P11710 432-512, looked up): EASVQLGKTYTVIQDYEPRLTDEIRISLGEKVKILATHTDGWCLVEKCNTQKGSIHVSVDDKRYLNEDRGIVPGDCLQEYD

SPOT intensity | Binder
0 | IAPIPMPKPNPTHIS
0 | RPVPRRPSQPLNTLS

Each binder was assayed against T16, Nbp2, Q12163 (assay: SPOT array). Details: median of control spots 357.
T16 sequence (Q12163 103-180, looked up): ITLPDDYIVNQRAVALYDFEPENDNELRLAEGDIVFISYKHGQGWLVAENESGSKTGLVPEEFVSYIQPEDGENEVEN

SPOT intensity | Binder
1 | IAPIPMPKPNPTHIS
71 | RPVPRRPSQPLNTLS

What follows are binders tested against GST (assay: SPOT array). Details: median of control spots 978.

SPOT intensity | Binder
0 | IAPIPMPKPNPTHIS
0 | RPVPRRPSQPLNTLS

What follows are binders tested against T17, Boi2, P39969 (assay: SPOT array). Details: median of control spots 1161.
T17 sequence (P39969 32-116, looked up): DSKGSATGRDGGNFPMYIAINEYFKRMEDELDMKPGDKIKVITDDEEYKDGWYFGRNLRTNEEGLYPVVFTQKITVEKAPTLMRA

SPOT intensity | Binder
1 | IAPIPMPKPNPTHIS
1 | RPVPRRPSQPLNTLS

The binders below were run against Rvs167, P39743 (assay: SPOT array). Details: median of control spots 2707.
Rvs167, P39743, sequence (P39743 419-482): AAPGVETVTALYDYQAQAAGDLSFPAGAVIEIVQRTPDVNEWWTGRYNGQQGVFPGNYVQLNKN

SPOT intensity | Binder
0 | IAPIPMPKPNPTHIS
4060 | RPVPRRPSQPLNTLS

What follows are binders tested against T18, Bud14, P27637 (assay: SPOT array). Details: median of control spots 956.
T18 sequence (P27637 247-328, looked up): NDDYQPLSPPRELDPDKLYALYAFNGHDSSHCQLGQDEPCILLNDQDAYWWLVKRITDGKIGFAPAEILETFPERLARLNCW

SPOT intensity | Binder
0 | IAPIPMPKPNPTHIS
11 | RPVPRRPSQPLNTLS

These binders were tested against Bem1-1, P29366 (assay: SPOT array). Details: median of control spots 4282.
Bem1-1, P29366, sequence (P29366 55-141): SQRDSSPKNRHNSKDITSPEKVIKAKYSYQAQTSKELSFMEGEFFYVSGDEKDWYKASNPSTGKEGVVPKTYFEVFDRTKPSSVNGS

SPOT intensity | Binder
0 | IAPIPMPKPNPTHIS
0 | RPVPRRPSQPLNTLS

Each binder was assayed against T19, Pex13, P80667 (assay: SPOT array). Details: median of control spots 1341.
T19 sequence (P80667 295-386, looked up): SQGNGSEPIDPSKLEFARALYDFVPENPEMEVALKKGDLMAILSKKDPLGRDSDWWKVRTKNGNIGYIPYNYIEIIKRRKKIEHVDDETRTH

SPOT intensity | Binder
54 | IAPIPMPKPNPTHIS
348 | RPVPRRPSQPLNTLS

What follows are binders tested against T20, Lsb1, P53281 (assay: SPOT array). Details: median of control spots 388.
T20 sequence (P53281 45-122, looked up): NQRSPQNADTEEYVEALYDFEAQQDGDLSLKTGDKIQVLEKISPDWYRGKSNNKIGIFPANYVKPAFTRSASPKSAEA

SPOT intensity | Binder
2 | IAPIPMPKPNPTHIS
94 | RPVPRRPSQPLNTLS

Each binder was assayed against T21, Pin3, Q06449 (assay: SPOT array). Details: median of control spots 2171.
T21 sequence (Q06449 53-122, looked up): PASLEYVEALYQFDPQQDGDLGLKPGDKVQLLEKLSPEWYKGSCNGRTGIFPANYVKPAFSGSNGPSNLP

SPOT intensity | Binder
43 | IAPIPMPKPNPTHIS
26 | RPVPRRPSQPLNTLS
